# Experiments:
# [1] = target: GST-SP1 (UniProt P08047); test: SPR; settings: SPR VEGF165: DNA folded in 10 mM Tris-HCl, 100 mM KCl, pH 7.4, 25 °C, ELONA: DNA folded in TK (100 mM KCl) or 100 mM LiCl buffer, binding in TBS (10 mM …)
# [2] = target: GST-SP1 (UniProt P08047); test: ELONA; settings: 5-methylcytosine at CpG (underlining lost in text; CpG C at 5, 10, 16); SPR VEGF165: DNA folded in 10 mM Tris-HCl, 100 mM KCl, pH 7.4, 25 °C; ELONA: DNA folded in TK (100 mM KCl) or 100 mM LiCl buffer, binding in TBS (10 mM …)
# [3] = target: VEGF165 (UniProt P15692-4 27-191); test: SPR; 100 mM K+; SPR VEGF165: DNA folded in 10 mM Tris-HCl, 100 mM KCl, pH 7.4, 25 °C; ELONA: DNA folded in TK (100 mM KCl) or 100 mM LiCl buffer, binding in TBS (10 mM Tris-HCl, 150 mM NaCl, 5 mM KCl), 90 µM ZnCl2, pH 7.3, RT; SPR GST-SP1: captured by anti-GST on CM5, single-cycle kinetics 10-160 nM DNA, running buffer not stated; settings: chain copies: 2, label: 5' biotin for ELONA
# Sequence of VEGF165 (P15692 other isoform, or with tags, fused parts or gaps): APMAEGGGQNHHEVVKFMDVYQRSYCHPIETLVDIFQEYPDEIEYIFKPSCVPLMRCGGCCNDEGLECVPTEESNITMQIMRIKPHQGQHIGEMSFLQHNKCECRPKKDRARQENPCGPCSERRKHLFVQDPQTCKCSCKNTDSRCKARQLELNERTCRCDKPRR
# Sequence of GST-SP1 (P08047 whole entry): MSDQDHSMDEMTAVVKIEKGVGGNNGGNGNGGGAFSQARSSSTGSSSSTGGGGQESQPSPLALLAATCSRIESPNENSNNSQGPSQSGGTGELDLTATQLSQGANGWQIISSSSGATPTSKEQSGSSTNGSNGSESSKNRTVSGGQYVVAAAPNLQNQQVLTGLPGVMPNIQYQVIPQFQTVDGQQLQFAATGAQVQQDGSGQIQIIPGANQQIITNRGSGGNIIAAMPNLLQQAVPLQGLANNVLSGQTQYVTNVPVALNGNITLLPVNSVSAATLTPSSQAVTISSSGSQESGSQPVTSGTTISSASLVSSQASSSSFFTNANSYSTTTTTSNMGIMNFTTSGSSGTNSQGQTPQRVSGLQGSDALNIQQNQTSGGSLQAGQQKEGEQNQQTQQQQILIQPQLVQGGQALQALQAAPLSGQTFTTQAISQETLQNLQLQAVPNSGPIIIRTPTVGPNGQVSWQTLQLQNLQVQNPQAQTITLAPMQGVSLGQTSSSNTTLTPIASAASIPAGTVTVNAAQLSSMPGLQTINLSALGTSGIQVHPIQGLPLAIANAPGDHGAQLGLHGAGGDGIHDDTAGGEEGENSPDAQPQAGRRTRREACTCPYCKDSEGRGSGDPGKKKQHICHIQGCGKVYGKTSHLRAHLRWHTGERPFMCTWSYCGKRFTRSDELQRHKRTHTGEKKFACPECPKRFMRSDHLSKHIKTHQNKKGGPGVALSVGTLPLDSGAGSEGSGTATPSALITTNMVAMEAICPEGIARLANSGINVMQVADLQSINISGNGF
molecule,measurement,setting,value
GGCGAGGAGGGGCGTGGCCGGC [c-KIT G4 methylated],Kd,"[1]; 5-methylcytosine at CpG (underlining lost in text; CpG C at 3, 13, 19)",11 nM
GGGGCGGGCCGGGGGCGGGG [VEGF G4 methylated],binding signal (fold signal vs unmethylated),[2],1.5
same,Kd,"[1]; 5-methylcytosine at CpG (underlining lost in text; CpG C at 5, 10, 16)",11 nM
GGGGCGGGCCGGGGGCGGGG [VEGF G4 unmethylated],Kd,[1],14 nM
TCGGGTTGCGGGCGCAGGGCACGGGCG [HRAS1 G4 methylated],Kd,"[1]; 5-methylcytosine at CpG (underlining lost in text; CpG C at 2, 9, 13, 22, 26)",36 nM
CGGGGCGGGGCGGGGGCGGGGGCG [HRAS2 G4 methylated],Kd,"[1]; 5-methylcytosine at CpG (underlining lost in text; CpG C at 1, 6, 11, 17, 23)",27 nM
TCGGGTTGCGGGCGCAGGGCACGGGCG [HRAS1 G4 unmethylated],Kd,[1],10 nM
CGGGCGCGGGAGGAAGGGGGCGGGAGC [BCL-2 G4 unmethylated],Kd,[1],12 nM
CGGGGCGGGGCGGGGGCGGGGGCG [HRAS2 G4 unmethylated],Kd,[1],10 nM
CGGGCGCGGGAGGAAGGGGGCGGGAGC [BCL-2 G4 methylated],Kd,"[1]; 5-methylcytosine at CpG (underlining lost in text; CpG C at 1, 5, 7, 21)",28 nM
GGCGAGGAGGGGCGTGGCCGGC [c-KIT G4 unmethylated],Kd,[1],16 nM
GGGGCGGGCCGGGGGCGGGG (structured_DNA) [VEGF G4 unmethylated],Kd,"[3]; G4, parallel in K+",13 ± 0.43 nM
"GGGGCGGGCCGGGGGCGGGG (structured_DNA, 5-methylcytosine at CpG (underlining lost in text; CpG C at 5, 10, 16)) [VEGF G4 methylated]",Kd,"[3]; G4, altered topology",25 ± 5.7 nM

# Reference: PMC6017926, “CpG Methylation Changes G-Quadruplex Structures Derived from Gene Promoters and Interaction with VEGF and SP1”
